Results taken from paper PMC8567202, “Phosphoinositide-binding activity of Smad2 is essential for its function in TGF-β signaling” (The Journal of Biological Chemistry, 2021).
Square brackets hold non-standard residues; d marks the D form. Ends that are not written are not given here. fluorescein = fluorescein-6-aminohexanoyl (F-Ahx); pS = N[C@@H](COP(=O)(O)O)C(=O)O; Ahx = NCCCCCC(=O)O

B1: TβRI GS region peptide (F-Ahx-YDMTTpSGpSGpSGLPLL) (peptide)
peptide: {fluorescein-Ahx}-YDMTT[pS]G[pS]G[pS]GLPLL
notes: type I TGF-β receptor (TβRI), GS region, triply phosphorylated; also called GS peptide; TβRI peptide; source: synthetic peptide; bought: AlanScientific
B2: TβRI L45 loop region peptide (F-Ahx-ADNKDNGT) (peptide)
peptide: {fluorescein-Ahx}-ADNKDNGT
notes: type I TGF-β receptor (TβRI), L45 loop; also called L45 peptide; L45 loop peptide; source: synthetic peptide; bought: AlanScientific

Key:
Details in all cases: both partners purified
Smad2-K420A = target: T1, Smad2-K420A (UniProt Q62432 1-467, K420A); assay: fluorescence polarisation; fluorescence anisotropy; F-Ahx-labelled peptide fixed (2.5 μM in the methods, 2.5 nM in the legend), Smad2 WT or mutant varied (0-250 μM in the methods, 0-150 μM in the legend); 20 mM Tris pH 7.9, 160 mM NaCl; 10 min incubation
T1 construct: Smad2, full length, point mutant K420A; source: E. coli BL21 RIL codon plus, purified (Ni-NTA)
T1 sequence (Q62432 whole entry K420A): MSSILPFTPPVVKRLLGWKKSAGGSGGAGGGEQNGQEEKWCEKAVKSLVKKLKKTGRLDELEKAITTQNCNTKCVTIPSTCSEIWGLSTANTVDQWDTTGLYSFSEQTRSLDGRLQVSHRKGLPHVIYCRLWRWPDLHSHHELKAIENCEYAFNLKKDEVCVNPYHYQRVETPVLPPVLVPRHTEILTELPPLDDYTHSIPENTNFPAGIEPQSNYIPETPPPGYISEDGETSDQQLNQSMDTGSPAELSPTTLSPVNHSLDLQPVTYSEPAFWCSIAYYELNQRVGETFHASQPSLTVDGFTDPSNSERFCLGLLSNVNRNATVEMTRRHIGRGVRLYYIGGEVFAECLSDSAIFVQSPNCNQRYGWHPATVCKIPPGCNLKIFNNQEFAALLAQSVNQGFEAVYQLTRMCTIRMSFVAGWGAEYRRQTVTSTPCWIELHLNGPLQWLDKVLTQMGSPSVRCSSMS

Smad2-R427A/R428A = target: T2, Smad2-R427A/R428A (UniProt Q62432 1-467, R427A | R428A); assay: as above
T2 construct: Smad2, full length, double mutant R427A/R428A; also called RR/AA; source: E. coli BL21 RIL codon plus, purified (Ni-NTA)
T2 sequence (Q62432 whole entry R427A/R428A): as the sequence (Q62432 whole entry K420A) above, with A420K, R427A, R428A counted along it

[1] = target: T3, Smad2 wild type, full length (UniProt Q62432 1-467); assay: as above
T3 construct: Smad2, full length (FL), bacterially expressed from pET-30a; also called Smad2 WT; Smad2-FL; source: E. coli BL21 RIL codon plus, purified (Ni-NTA)
T3 sequence (Q62432 whole entry): as the sequence (Q62432 whole entry K420A) above, with A420K counted along it

Smad2-E425K = target: T4, Smad2-E425K (UniProt Q62432 1-467, E425K); assay: as above
T4 construct: Smad2, full length, charge-reversal point mutant E425K; source: E. coli BL21 RIL codon plus, purified (Ni-NTA)
T4 sequence (Q62432 whole entry E425K): as the sequence (Q62432 whole entry K420A) above, with A420K, E425K counted along it

Smad2-W422A = target: T5, Smad2-W422A (UniProt Q62432 1-467, W422A); assay: as above
T5 construct: Smad2, full length, point mutant W422A; source: E. coli BL21 RIL codon plus, purified (Ni-NTA)
T5 sequence (Q62432 whole entry W422A): as the sequence (Q62432 whole entry K420A) above, with A420K, W422A counted along it

Smad2-Y426A = target: T6, Smad2-Y426A (UniProt Q62432 1-467, Y426A); assay: as above
T6 construct: Smad2, full length, point mutant Y426A; source: E. coli BL21 RIL codon plus, purified (Ni-NTA)
T6 sequence (Q62432 whole entry Y426A): as the sequence (Q62432 whole entry K420A) above, with A420K, Y426A counted along it

[2] = target: T3, Smad2 wild type, full length; assay: as above; remark: listed apart in the source
[3] = target: T3, Smad2 wild type, full length; assay: fluorescence polarisation; fluorescence anisotropy as a1, in the presence of 50 μM POPC/POPS/PI(4,5)P2 (77:20:3) LUVs

Row | Kd (Smad2-K420A) | Kd (Smad2-R427A/R428A) | Kd [1] | Kd (Smad2-E425K) | Kd (Smad2-W422A) | Kd (Smad2-Y426A) | Kd [2] | Kd [3] | Binder
1 | 200 µM | 44 µM | 20 µM | 8 µM | 21 µM | 20 µM | 0.02 ± 0.006 µM | 0.06 ± 0.007 µM | B1
2 | 100 µM | 75 µM | 66 µM | 55 µM | 67 µM | 70 µM | – | – | B2
